The stoichiometry N is the number of molecules, sites or subunits per partner or assembly.

What all share (assay): SEC
A general note: In gel filtration, larger molecules generally elute earlier.

Assay [1] concerns the target rainbow trout (Oncorhynchus mykiss) BALM (rainbow trout (Oncorhynchus mykiss)).
The target of assay [2] is rainbow trout (Oncorhynchus mykiss) RANKL (rainbow trout (Oncorhynchus mykiss)).
In assay [3] the target is rainbow trout (Oncorhynchus mykiss) TRAIL-like (rainbow trout (Oncorhynchus mykiss)).

“rainbow trout (Oncorhynchus mykiss) BALM (ligand)” gave a stoichiometry N in assay [1] of 3.
As to “rainbow trout (Oncorhynchus mykiss) RANKL (ligand)”, in assay [2], the stoichiometry N was found to be 3.
On to “rainbow trout (Oncorhynchus mykiss) TRAIL-like (ligand)”, for which the stoichiometry N in assay [3] worked out at 3.

The values are drawn from PMC3691878.
